Assay results from publication PMC7458484 (ACS Nano, 2020).

Molecular target: the molecule itself
Assay: SAXS; steady state, flow cell; 1.14 mg/mL disassembled Cp185 in disassembly buffer (1.5 M GuHCl, 0.5 M LiCl, 50 mM HEPES pH 7.5, 2 mM DTT); monomer to dimer

B1: full-length hepatitis B virus core protein Cp185 (natural protein)
chain: MDIDPYKEFGATVELLSFLPSDFFPSVRDLLDTASALYREALESPEHCSPHHTALRQAILCWGELMTLATWVGNNLEDPASRDLVVNYVNTNMGLKIRQLLWFHISCLTFGRETVLEYLVSFGVWIRTPPAYRPPNAPILSTLPETTVVRRRDRGRSPRRRTPSPRRRRSQSPRRRRSQSRESQC
  stoichiometry N: 2
